To fix the notation:
B1: PA2LR3-P1G6 (chimeric) (antibody, V domains shown)
VH: EVQLQQSGAELVRPGSSVKISCKASGYAFSYYWMNWVKQRPGQGLEWIGQIYPGDGDTNYNGKFKGKATLTVDKSSSTAYMQLSSLTSEDSAVYFCARSHGNYFAYWGQGTLVTVSA
VL: DIVLSQSPAIMSASLGERVTMTCTASSSVSSSYLHWYQQKPGSSPKLWIYSTSNLASGVPARFSGSGSGTSYSLTISRMEAEDAATYYCQQWSSYPLTFGAGTKLELKR
B2: PA2LR3-P2D3 (chimeric) (antibody, human IgG1, kappa, V domains shown)
VH: B1 VH with V72A, N102S
VL: DIELAQSPASLAVSLGQRATISCRASESVDSYGNSFMHWYQQKPGQPPKLLIYLASNLESGVPARFSGSGSRADFTLTIDPVEADDAATYYCLQYASSPPTFGAGTKLEIKR
B3: PA2LR3-P2E5 (chimeric) (antibody, V domains shown)
VH: B1 VH with S30R, Y31D, D57A, N61I, V72A, A105P, Q109H
VL: B1 VL with D1Q, S5T, R78S
B4: PA2LR3-P1H4 (chimeric) (antibody, V domains shown)
VH: B1 VH with A28V, S30G, Y31N, V72A, A105P
VL: B1 VL with D1Q, S5T, R78S
B5: PA2LR3-P4B1 (chimeric) (antibody, human IgG1, kappa, V domains shown)
VH: B1 VH with Y27F, Y31N, Y60F, K67R, T69I, V72A, K74I, S77N, A105P
VL: B1 VL with D1Q, S5T, R78S, Q90H, W92Y, S93H, S94R, Y95S
B6: PA2LR3-P3B8 (chimeric) (antibody, V domains shown)
VH: B1 VH with Y27F, Y31N, Y60F, K67R, T69I, V72A, K74I, S77N, A105P
VL: B1 VL with L4M, S5T, S51G, A61V, R78S
B7: PA2LR3-P2B8 (chimeric) (antibody, V domains shown)
VH: B1 VH with V72A
VL: B1 VL with L4M, S5T, V29I, R78S, Q90H, W92Y, S93H, S94R, Y95S, T98A
B8: PA2LR3-P4C6 (chimeric) (antibody, V domains shown)
VH: B1 VH with V72A, A105P
VL: B1 VL with L4I, S5T, M11V, R78S, L107I
B9: PA2LR3-P3B10 (chimeric) (antibody, V domains shown)
VH: B1 VH with V72A, A105P
VL: B1 VL with L4I, S5T, M11V, R78S, L107I
B10: PA2LR3-P4G10 (chimeric) (antibody, V domains shown)
VH: B1 VH with S7F, V72A
VL: B1 VL with S5T, R78S, Y95N
B11: PA2R3-P1F1 (chimeric) (antibody, V domains shown)
VH: EVQLQQSGAELMKPGASVKISCKATGYTFSSYWIEWVKQRPGHGLEWIGEILPGSGSTNYNEKFKGKATFTADTSSNTAYMQLSSLTSEDSAVYYCARGAWLLSYWYFDVWGAGTSVTVSS
VL: DIQMMQSTSSLSASLGDRVTISCSASQGISNYLNWYQQKPDGTVKLLIYYTSSLHSGVPSRFSGSGSGTQFSLKINSLQPEDFGSYYCQHHYGTPYTFGGGTKLELKR

Positions count from the first letter of the chain named.

Chain of A138 iCAPS (purified human CB1 with ICL3 native sequence replaced with protein 1 sequence, in lipid bilayer) (human) (P21554 whole entry): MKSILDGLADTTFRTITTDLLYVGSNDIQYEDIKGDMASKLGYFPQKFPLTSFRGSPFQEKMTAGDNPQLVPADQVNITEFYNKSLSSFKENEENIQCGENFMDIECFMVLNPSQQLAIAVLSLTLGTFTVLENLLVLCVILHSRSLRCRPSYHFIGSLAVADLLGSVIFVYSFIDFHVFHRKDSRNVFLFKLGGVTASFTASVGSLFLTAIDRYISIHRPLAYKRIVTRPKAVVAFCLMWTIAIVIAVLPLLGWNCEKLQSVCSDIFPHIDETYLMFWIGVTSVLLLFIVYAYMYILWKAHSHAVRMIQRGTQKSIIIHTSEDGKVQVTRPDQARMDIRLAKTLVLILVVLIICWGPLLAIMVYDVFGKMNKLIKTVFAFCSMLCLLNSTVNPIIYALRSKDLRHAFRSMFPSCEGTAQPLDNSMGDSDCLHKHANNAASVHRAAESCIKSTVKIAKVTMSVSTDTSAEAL

The first assay has as its target A138 iCAPS (purified human CB1 with ICL3 native sequence replaced with protein 1 sequence, in lipid bilayer) (human) (UniProt P21554). In words: ELISA, purified IgG on CB1 iCAPS.
As to B1, the concentration for a half-maximal effect (EC50) is 81 nM. Molecule B2 had an EC50 of 4.9 nM. On the same count and under the same terms, the value for B3 was 10 nM; that for B4 was 21 nM.

As to B5, the EC50 came to 1.28 nM. Molecule B6 displayed a 50% effective concentration (EC50) of 71 nM. With B7, the EC50 came to 6.7 nM. B8 yielded an EC50 of 0.4 nM. On the same count and under the same terms, under B9 stands 1.4 nM; under B10, 1.19 nM. In the case of B11, the EC50 stood at 1.3 nM. This EC50 and that of the molecule before are within 1.5-fold of each other.

For a further assay, the target named is A139 iCAPS (purified human CB1 with ICL3 native sequence replaced with BRIL, in lipid bilayer) (human) (UniProt P21554). In words: ELISA, purified IgG on CB1 iCAPS.
Chain of A139 iCAPS (purified human CB1 with ICL3 native sequence replaced with BRIL, in lipid bilayer) (human) (P21554 whole entry): as above
In the case of B1, the concentration for a half-maximal effect (EC50) was 35 nM. Molecule B2 had a concentration giving a half-maximal response (EC50) of 2.6 nM. Molecule B3 registered an EC50 of 3.2 nM. Take B4: the EC50 came out at 33.5 nM.

B5 returned an EC50 of 1.41 nM.

As to B7, the 50% effective concentration (EC50) was determined as 1.8 nM. The molecule B8 returned an EC50 of 0.4 nM.

Molecule B9 showed an EC50 of 0.78 nM.

As for B10, the EC50 worked out at 1.35 nM. B11: the EC50 amounted to 1.1 nM.

The values above are taken from patent US20230348589A1.
